These results are taken from PMC9763398.

One assay concerns the target DYRK1A (UniProt Q13627). As to the kind of experiment: immunofluorescence co-localisation, confocal overlap index.
The next assay has as its target TGF-β receptor 1 (UniProt P36897). As to the kind of experiment: co-immunoprecipitation, western blot. As to conditions: reference: wild type Hsp90ab1; sites S225,S254. For orientation: In western blotting, separated proteins are transferred to a membrane and probed.

With “Hsp90ab1 (from UniProt P08238) S225A S254A Hsp90ab1”, in the assay with DYRK1A (reference: wild type Hsp90ab1, sites S225,S254), the “other: average overlap index” value is “weaker; reference 0.5378”. The “binding against the reference” value in the assay with TGF-β receptor 1 is on record as “weaker”.
“β-catenin (from UniProt P35222) T551A S552A β-catenin”: the “other: average overlap index” value with DYRK1A (reference: wild type β-catenin, sites T551,S552) was “weaker; reference 0.8419”.
